According to IntAct's records for PubMed 17666432:

B1: Zygote defective protein 9 (Caenorhabditis elegans), G5EEM5 (parent)
chain: MSNWDYLDEVDILPKLPPNFDELRESKKWQERKEALEALLKVLTDNERLSTKASYAELIGHLQMVLAKDANINCQALAAKCIGKFATGLRAKFSSFAGPLLPVIFEKMKEKKPMLREPLVDCSNEVGRTMQSLETGQEDILAALAKPNPQIKQQTALFVARQLDLVVPAKQPKGFIKAVVPVFGKLTGDADQDVREASLQGLGAVQRIIGDKNVKNLLGDASSDEGKMKKIGEYAEKSTASFAEEQAKNAPPVAPTSSTPSASAASGDPSGGTATAVVSSGAPVAEADPWDFLDAFDVLSKMPDGFDTNIESKKWQERKEALEGLLQLITANPKLDPKANYGALVERLQKVLEKDANINVAALAANCITGIANGLRTKFQPFAVSVTPIIFEKFKEKKPTLRDPLVACIDAVVATTNLEAVGEIVLAALGKPNPSIKTQTDLFLQRCFMKLNSQTMPKKTLKTLIPSLIKHSGDSDSEVREASYAAMGAMMRAIGEKPSLQLLADIASDNLKMSKIKEFHQKALDEAGPAEIAEMVKSIHKADAPPAAAPPKKTAPPKKQPEDEEVVEEEDEPLKPPPGDKKKKVPVKENEENEPPVVAPKAELLLSDNEDKKQRIKEEKQLKLVKWNFQAPTDEHISQLQTLLGNQAKVSLMSQLFHKDFKQHLAALDSLVRLADTSPRSLLSNSDLLLKWCTLRFFETNPAALIKVLELCKVIVELIRDTETPMSQEEVSAFVPYLLLKTGEAKDNMRTSVRDIVNVLSDVVGPLKMTPMLLDALKSKNARQRSECLLVIEYYITNAGISPLKSLSVEKTVAPFVGDKDVNVRNAAINVLVACFKFEGDQMWKAAGRMADKDKSLVEERIKRTGVKPGSGVVTSPPTGGPKILVPQQQGSVVRRPASRSRTREPEPEEVQSDTFTIRQDTMPPKTSSRYALRDDVFSSAMGRLDGTQVITPPQPVNGWSNNTFQMKRTNSSSSISSIDTSDQIQRSINNISSSLADVAQDAMFQVTYVLNQPEQRHLVDRRADLVFRASAAQLDLVIEEFNAGRDVSGTMDACTQMLFILMGGVETEHGLEPLNASPDTVKAIISSVLRCIIQIGNTESGYGMARSLNRLAMRLIYRVELSNLLCGLILAMTESLQMNTGITELVSKLSSKWCDELEKRRAQLRASDIVDSFNAFYVCALTELKMDISDSHILIVDNYLERVILQQGDVVLDAARRLSRPHMHLTSMINKILQMMRERKIDPIMPGTLEARMPQEDEAVVVRSGVQVSIDNILRDTSMAVKHIEQLNILIASSDRSWNEYMEYLKNNPMGELIKELVGECSRKKRIDFNLSHVVKSSMAVFKAMAATGPVQEEGRITPTDINRMDTMIVGTPLSRGDATITRARGNMIRPKRTTLSRDQMANIRHTLDRVKNH
partner: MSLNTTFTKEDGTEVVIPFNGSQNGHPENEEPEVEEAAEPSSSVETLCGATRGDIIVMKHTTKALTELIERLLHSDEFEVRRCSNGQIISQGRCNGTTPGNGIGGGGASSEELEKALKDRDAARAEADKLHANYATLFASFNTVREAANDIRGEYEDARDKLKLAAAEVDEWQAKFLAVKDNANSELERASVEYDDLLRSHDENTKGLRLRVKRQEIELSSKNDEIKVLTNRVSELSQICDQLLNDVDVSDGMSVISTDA
B2: Transforming acid coiled-coil-containing protein 1 (Caenorhabditis elegans), G5ECG0 (parent)
chain: B1 partner
partner: B1 chain

Variants of: B1
Settings: with tacc1_caeel tac-1, G5ECG0
With E1317K the “effect of a mutation on the interaction” value was “decreasing interaction”. For I862K, the “effect of a mutation on the interaction” value was “decreasing interaction”.

Variants of: B2
Settings: with zyg9_caeel zyg-9, G5EEM5
L229F was tested, and the “effect of a mutation on the interaction” value was “decreasing interaction”.
